The results in this text go back to article PMC4100210 (Nature communications, 2014).

Changes are numbered by the printed parent chain. Ends that are not written are not given here.

For assay [1], the target named is T1, Dvl2 full-length protein (human, UniProt O14641 1-736).
T1 sequence (looked up): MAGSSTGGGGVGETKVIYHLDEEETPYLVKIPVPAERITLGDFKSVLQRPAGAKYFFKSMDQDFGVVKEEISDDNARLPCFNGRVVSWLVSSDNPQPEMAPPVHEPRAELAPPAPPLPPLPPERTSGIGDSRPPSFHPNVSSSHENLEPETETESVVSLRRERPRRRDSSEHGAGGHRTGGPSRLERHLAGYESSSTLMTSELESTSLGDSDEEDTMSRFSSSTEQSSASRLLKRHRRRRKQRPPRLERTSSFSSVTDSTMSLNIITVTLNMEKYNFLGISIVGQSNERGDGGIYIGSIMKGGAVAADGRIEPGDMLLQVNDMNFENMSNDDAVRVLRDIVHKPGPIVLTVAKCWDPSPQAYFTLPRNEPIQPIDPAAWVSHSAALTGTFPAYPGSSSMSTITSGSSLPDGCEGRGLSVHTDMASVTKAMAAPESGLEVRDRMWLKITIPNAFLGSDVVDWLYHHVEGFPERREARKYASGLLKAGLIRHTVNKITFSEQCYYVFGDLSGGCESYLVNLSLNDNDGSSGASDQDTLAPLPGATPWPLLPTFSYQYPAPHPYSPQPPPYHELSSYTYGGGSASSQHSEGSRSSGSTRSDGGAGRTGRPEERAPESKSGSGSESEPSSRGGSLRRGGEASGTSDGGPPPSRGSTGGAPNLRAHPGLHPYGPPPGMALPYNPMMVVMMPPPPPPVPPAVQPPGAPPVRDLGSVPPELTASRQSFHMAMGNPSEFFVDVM
As to the kind of experiment: pull-down.

Assay [2] deals with T2, Dvl2 FL F277A/M300A (human, UniProt O14641 1-736, F277A | M300A).
T2 sequence (looked up): T1 sequence (looked up) with F277A, M300A
Put plainly: pull-down.

Turning to {GST}-GKTLQSWRRFYHRLSHSSKGETAV [GST-Fz7 fusion peptide (GST-GKTLQSWRRFYHRLSHSSKGETAV)], the binding result in assay [1] and in assay [2] was “binds” each time.
